Tested on: Jurkat, HCT116, BEL-7402 and H460 cancer cells
Assay: CCK-8 cytotoxicity assay of killing cancer cells
Type: cell-based, human
Conditions: summary statement; leukemia, liver cancer, colon cancer, lung cancer cells
Experimental: The assay was carried out in 96-well cell culture plates. Various concentrations (0, 0.5, 1, 2, 4, 8 μg/ml) of humanized anti-human DR5 monoclonal antibodies AD10, AD14 and AD15 were separately added into to human T-cell lymphocytic leukemia cells Jurkat (ATCC, TIB-152), colon cancer cells HCT116 (ATCC, CCL-247), liver cancer cells BEL-7402 (cell bank, Shanghai Institutes for Biological Sciences of Chinese Academy of Sciences, TCHu 10) and non-small cell lung cancer cells H460 (ATCC, HTB-177) in logarithmic growth phase, for 24 hours; parental murine anti-human DR5 monoclonal antibody (AD5-10) and human-mouse chimeric antibody zaptuximab were used as controls. According to the protocol of CCK-8 cytotoxicity detection kit (Dojindo, Gaithersburg, Md.), CCK-8 agents were added and incubated for 2 to 4 hours, the OD value was measured at 450 nm wavelength in micro-ELISA plate detector. The OD value in cell-free well was set as blank control “0”. Cell survival rate=OD value in treated well/OD value in untreated well.

B1: zaptuzumab: intact humanized monoclonal antibody against DR5 expressed in HEK293 cells and purified by affinity chromatography (antibody, chains of the INN, looked up, V domains shown)
VH: QVQLVQSGSELKKPGASVKVSCKASGYTFTDFSMNWVRQAPGQGLEWMGWINTETGEPTYADDFKGRFVFSLDTSVSTAYLQISSLKAEDTAVYYCARIDYWGQGTTVTVSS
VL: DIVMTQSPLSLPVTPGEPASISCRSSQSLVHSNGNTYLHWYLQKPGQSPQLLIYKVSNRFSGVPDRFSGSGSGTDFTLKISRVEAEDVGVYYCFQSTHVPHTFGQGTKLEIK
killing activity to cancer cells in vitro: strong killing activity to various cancer cells

— patent US9725517B2, “Humanized monoclonal antibodies against the extracellular domain of human death receptor 5” (Institute of Basic Medical Sciences, Chinese Academy of …, priority 2012, dated 2017)
